Residue numbers refer to the chain shown, from its start. Numbers in names are those of the source.
B1: XENP26235 (antibody, V domains shown)
VH: QVQLVQSGAEVKKPGASVKVSCKASGFNIKDTYIHWVRQAPGKGLEWMGRIDPDNGETLYASKFQGRVTMTADTSINTAYMELSRLRSDDTAVYYCGRGYGYYYFDHWGQGTTVTVSS
VL: AIKMTQSPSSLSASVGDRVTITCRTSRSISKYLAWYQEKPGKTNKLLIYSGSTLQSGIPSRFSGSGSGTDFTLTISSLQPEDFATYYCQQHNENPLTFGAGTKLEIK
notes: also called OKT8_H2.158_L1.103 one-arm mAb
B2: XENP26231 (antibody, V domains shown)
VH: B1 VH with M70I, Y102K, Y104V
VL: B1 VL
notes: also called OKT8_H2.154_L1.103 one-arm mAb
B3: XENP26234 (antibody, V domains shown)
VH: B1 VH with Y102K, Y104V
VL: B1 VL
notes: also called OKT8_H2.157_L1.103 one-arm mAb
B4: XENP26243 (antibody, V domains shown)
VH: B1 VH with G56D, Y100W, Y104V
VL: B1 VL
notes: also called OKT8_H2.166_L1.103 one-arm mAb
B5: XENP26241 (antibody, V domains shown)
VH: B1 VH with G56D, Y102K, Y104V
VL: B1 VL
notes: also called OKT8_H2.164_L1.103 one-arm mAb
B6: XENP26238 (antibody, V domains shown)
VH: B1 VH with G56D, M70I, Y102K, Y104V
VL: B1 VL
notes: also called OKT8_H2.161_L1.103 one-arm mAb
B7: XENP26009 (antibody, V domains shown)
VH: B1 VH with M70I, Y104V
VL: B1 VL
notes: also called OKT8_H2.152_L1.103 one-arm mAb
B8: XENP26230 (antibody, V domains shown)
VH: B1 VH with Y104V
VL: B1 VL
notes: also called OKT8_H2.153_L1.103 one-arm mAb
B9: XENP26242 (antibody, V domains shown)
VH: B1 VH with G56D
VL: B1 VL
notes: also called OKT8_H2.165_L1.103 one-arm mAb
B10: XENP26232 (antibody, V domains shown)
VH: B1 VH with M70I
VL: B1 VL
notes: also called OKT8_H2.155_L1.103 one-arm mAb
B11: XENP26237 (antibody, V domains shown)
VH: B1 VH with G56D, Y104V
VL: B1 VL
notes: also called OKT8_H2.160_L1.103 one-arm mAb
B12: XENP26233 (antibody, V domains shown)
VH: B1 VH with M70I, Y100W, Y104V
VL: B1 VL
notes: also called OKT8_H2.156_L1.103 one-arm mAb
B13: XENP26239 (antibody, V domains shown)
VH: B1 VH with G56D, M70I
VL: B1 VL
notes: also called OKT8_H2.162_L1.103 one-arm mAb
B14: XENP26240 (antibody, V domains shown)
VH: B1 VH with G56D, M70I, Y100W, Y104V
VL: B1 VL
notes: also called OKT8_H2.163_L1.103 one-arm mAb
B15: XENP26236 (antibody, V domains shown)
VH: B1 VH with Y100W, Y104V
VL: B1 VL
notes: also called OKT8_H2.159_L1.103 one-arm mAb
B16: XENP26019 (antibody, V domains shown)
VH: B1 VH with M70I, Y104V
VL: B1 VL with K31I, S50K, H91A
notes: also called OKT8_H2.152_L1.113 one-arm mAb
B17: HIS-tagged human NKG2D (receptor, UniProt P26718 73-216, looked up)
chain: IWSAVFLNSLFNQEVQIPLTESYCGPCPKNWICYKNNCYQFFDESKNWYESQASCMSQNASLLKVYSKEDQDLLKLVKSYHWMGLVHIPTNGSWQWEDGSILSPNLLTIIEMQKGDCALYASSFKGYIENCSTPNTYICMQRTV
notes: Captured on HIS1K biosensors; not shown: HIS tag
B18: XENP27602 (antibody, human IgG1, kappa, V domains shown)
VH: EVQLVQSGAEVKKPGESLRISCKASGYTFTSYWMNWVRQMPGKGLEWMGRIDPYDSETHYNPSFQGHVTISVDKSISTAYLQWSSLKASDTAMYYCAKMGDYSFDYWGQGTLVTVSS
VL: DIQLTQSPSSLSASVGDRVTITCRASGNIHNYLAWYQQKPGKSPKVLVYNAKTLADGVPSRFSGSGSGTDYTLTISSLQPEDFATYYCQHFWSTPWTFGGGTKVEIKR
notes: humanized bivalent anti-NKG2D mAb, IgG1 with ablation variants; also called mAb B[NKG2D]_H2_L1.1_IgG1_PVA_/S267K
B19: XENP27604 (antibody, human IgG1, kappa, V domains shown)
VH: EVQLVESGGGLVQPGGSLRLSCAASGYTFTSYWMNWVRQAPGKGLVWVSRIDPYDSETHYNQKVKGRFTISVDKAKSTAYLQMNSLRAEDTAVYYCAKMGDYSFDYWGQGTLVTVSS
VL: B18 VL with P95T
notes: humanized bivalent anti-NKG2D mAb, IgG1 with ablation variants; also called mAb B[NKG2D]_H3L1_IgG1_PVA_/S267K
B20: XENP27606 (antibody, human IgG1, kappa, V domains shown)
VH: B19 VH
VL: DIQLTQSPDSLAVSLGERATINCKASGNIHNYLAWYQQKPGQSPKVLVYNAKTLADGVPSRFSGSGSGTDYTLTISSLQAEDVAVYYCQHFWSTTWTFGGGTKVEIKR
notes: humanized bivalent anti-NKG2D mAb, IgG1 with ablation variants; also called mAb B[NKG2D]_H3L2_IgG1_PVA_/S267K
B21: XENP27603 (antibody, human IgG1, kappa, V domains shown)
VH: B18 VH
VL: B20 VL
notes: humanized bivalent anti-NKG2D mAb, IgG1 with ablation variants; also called mAb B[NKG2D]_H2L2_IgG1_PVA_/S267K
B22: XENP27605 (antibody, human IgG1, kappa, V domains shown)
VH: B19 VH
VL: B18 VL
notes: humanized bivalent anti-NKG2D mAb, IgG1 with ablation variants; also called mAb B[NKG2D]_H3_L1.1_IgG1_PVA_/S267K
B23: XENP27610 (antibody, human IgG1, kappa, V domains shown)
VH: QVQLVQSGAEVKKPGASVKVSCKVSGFSLTIYGVHWVRQAPGQGLEWMGVIWSGGSTDYNAKFQGRVTMTKDNSKRTVYMELSSLRSEDTAVYYCSRKSHDGYYGVMDYWGQGTTVTVSS
VL: DIQLTQSPSSLSASVGDRVTITCRASQSIGTSIHWYQQKPGKSPKLLIKYASESISGIPSRFSGSGSGTDFTLTISSLQPEDFATYYCQQSNTWPLTFGAGTKVEIKR
notes: humanized bivalent anti-NKG2D mAb, IgG1 with ablation variants; also called mAb C[NKG2D]_H2L2_IgG1_PVA_/S267K
B24: XENP27607 (antibody, human IgG1, kappa, V domains shown)
VH: EVQLVESGGGLVQPGGSLRLSCAVSGFSLTIYGVHWVRQAPGKGLEWVSVIWSGGSTDYNAKVKGRFTISKDNSKRTVYLQMNSLRAEDTAVYYCSRKSHDGYYGVMDYWGQGTTVTVSS
VL: DIQLTQSPDFQSVTPKEKVTITCRASQSIGTSIHWYQQKPDQSPKLLIKYASESISGIPSRFSGSGSGTDFTLTINSLEAEDAATYYCQQSNTWPLTFGAGTKVEIKR
notes: humanized bivalent anti-NKG2D mAb, IgG1 with ablation variants; also called mAb C[NKG2D]_H1L1_IgG1_PVA_/S267K
B25: XENP27608 (antibody, human IgG1, kappa, V domains shown)
VH: B24 VH
VL: B23 VL
notes: humanized bivalent anti-NKG2D mAb, IgG1 with ablation variants; also called mAb C[NKG2D]_H1L2_IgG1_PVA_/S267K
B26: XENP27609 (antibody, human IgG1, kappa, V domains shown)
VH: B23 VH
VL: B24 VL
notes: humanized bivalent anti-NKG2D mAb, IgG1 with ablation variants; also called mAb C[NKG2D]_H2L1_IgG1_PVA_/S267K

Target: T1, human CD8 (captured on the Octet biosensor) (human, UniProt P01732 22-182, limits assumed)
T1 construct: Construct not described; also called recombinant human CD8a
T1 sequence (P01732 22-182 limits assumed): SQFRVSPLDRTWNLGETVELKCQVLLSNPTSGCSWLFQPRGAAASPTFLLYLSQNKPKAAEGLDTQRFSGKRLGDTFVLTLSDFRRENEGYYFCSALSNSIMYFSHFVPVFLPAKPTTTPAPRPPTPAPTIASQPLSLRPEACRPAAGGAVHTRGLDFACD
Assay: Octet (BLI); human CD8 captured, dipped into multiple concentrations of the one-arm mAb

Binder | Kd [µM] | koff [s⁻¹] | kon [M⁻¹ s⁻¹]
B1 | 0.00138 | 0.000992 | 718000
B2 | 0.0955 | 0.0226 | 236000
B3 | 0.0482 | 0.0124 | 258000
B4 | 0.00314 | 0.00196 | 626000
B5 | 0.0556 | 0.0148 | 265000
B6 | 0.0966 | 0.0262 | 271000

Target: T2, cynomolgus CD8 (captured on the Octet biosensor) (cynomolgus)
T2 construct: Construct not described; also called cyno CD8; cyno CD8a
Assay: Octet (BLI); cynomolgus CD8 captured, dipped into multiple concentrations of the one-arm mAb

Binder | Kd [µM] | koff [s⁻¹] | kon [M⁻¹ s⁻¹]
B7 | 0.0776 | 0.00909 | 117000
B1 | 0.0335 | 0.00477 | 143000
B2 | 0.0959 | 0.00887 | 92500
B8 | 0.0392 | 0.00967 | 247000
B9 | 0.03 | 0.00968 | 322000
B10 | 0.0357 | 0.0114 | 319000
B3 | 0.0556 | 0.00448 | 80600
B11 | 0.0674 | 0.00767 | 114000
B12 | 0.0666 | 0.0133 | 200000
B4 | 0.0559 | 0.0108 | 192000
B5 | 0.067 | 0.00589 | 88000
B13 | 0.0666 | 0.00882 | 133000
B6 | 0.107 | 0.00894 | 83900
B14 | 0.0754 | 0.0225 | 298000
B15 | 0.0551 | 0.00672 | 122000
B16 | 0.0807 | 0.00962 | 119000

Target: T3, XENP27145 (human)
T3 construct: also called NKG2D-targeted IL-15(N4D/N65D)/Rα-Fc fusion with targeting arm based on MS
Assay: Octet (BLI): HIS-tagged human NKG2D captured on HIS1K biosensors, dipped into multiple concentrations of the fusion; global fit, 1:1 Langmuir model

Binder | Kd [µM] | koff [s⁻¹] | kon [M⁻¹ s⁻¹]
B17 | 0.00245 | 0.00123 | 502000

Target: T4, XENP27197 (human, UniProt P0DOX7 1-214)
T4 construct: scIL-15/Rα x Fab format; also called NKG2D-targeted IL-15/Rα-Fc fusion based on 1D7B4 and IL-15(N4D/N65D) variant
Assay: as above

Binder | Kd [µM] | koff [s⁻¹] | kon [M⁻¹ s⁻¹]
B17 | 0.00866 | 0.00325 | 375000

Target: B17
Assay: Octet (BLI): His-tagged human NKG2D captured on HIS1K biosensors, dipped into 100 nM bivalent mAb

Binder | Kd [µM] | koff [s⁻¹] | kon [M⁻¹ s⁻¹]
B18 | 0.00195 | 0.00144 | 740000
B19 | 0.00101 | 0.00194 | 1.91e+06
B20 | 0.00115 | 0.00204 | 1.77e+06
B21 | 0.000703 | 0.00121 | 1.73e+06
B22 | 0.00328 | 0.00943 | 2.88e+06
B23 | 0.000199 | 0.000145 | 727000
B24 | 0.000506 | 0.000357 | 706000
B25 | 0.000371 | 0.000308 | 832000
B26 | 0.000167 | 8.64e-05 | 518000

— US12448423 (Xencor, dated 2025)
